Starred links: 1 amine or outer side, 2 acyl side, 3 side chain; linkers in the order of their positions; H or OH if unused. Positions of bridges follow the written chain, without caps; N, C: chain ends. Non-standard residues stand in square brackets, D forms with d. Primed or numbered codes have the meaning given here. *: point of attachment. DOTA‑Lu = DOTA-lutetium(175) amide on the side-chain amine, O=C([O-])CN1CCN(CC(=O)[O-])CCN(CC(=O)*)CCN(CC(=O)[O-])CC1.[175Lu+3]; MeHseMe″ = (2S)-4-methoxy-2-(methylamino)butanoic acid (N-methyl-O-methyl-L-homoserine), COCC[C@@H](C(=O)[*:2])N(C)[*:1]; Hgn = 2,6-diamino-6-oxohexanoic acid, NC(=O)CCC[C@H](N[*:1])C(=O)[*:2]; HseMe = 2-amino-4-methoxybutanoic acid, COCC[C@H](N[*:1])C(=O)[*:2]; Phe(4-(1-Me-pyrazol-4-yl)) = Cn1cc(-c2ccc(C[C@H](N)C(=O)O)cc2)cn1; NMeAla(isoquinolin-7-yl) = CN[C@@H](Cc1ccc2ccncc2c1)C(=O)O; 3Pal(6-Ph) = N[C@@H](Cc1ccc(-c2ccccc2)nc1)C(=O)O; Phe(4-COOH) = N[C@@H](Cc1ccc(C(=O)O)cc1)C(=O)O; NMe2Nal = CN[C@@H](Cc1ccc2ccccc2c1)C(=O)O; NMeI = CC[C@H](C)[C@H](NC)C(=O)O; NMeQ = CN[C@@H](CCC(N)=O)C(=O)O; NMeL = CN[C@@H](CC(C)C)C(=O)O; NMeK = CN[C@@H](CCCCN)C(=O)O; NMeC = CN[C@@H](CS)C(=O)O; NMeA = CN[C@@H](C)C(=O)O
B1: Macrocyclic peptide of Example 2-5 (SEQ ID No. 8) (peptide)
peptide: {CH2CO}-[NMeQ][NMeQ]D[NMeQ][Phe(4-COOH)]II[Phe(4-COOH)][NMe2Nal]G[Phe(4-(1-Me-pyrazol-4-yl))][NMeC]-NH2
modifications: thioether N-12
SMILES: CC[C@H](C)[C@@H]1NC(=O)[C@H](Cc2ccc(C(=O)O)cc2)NC(=O)[C@H](CCC(N)=O)N(C)C(=O)[C@H](CC(=O)O)NC(=O)[C@H](CCC(N)=O)N(C)C(=O)[C@H](CCC(N)=O)N(C)C(=O)CSC[C@@H](C(N)=O)N(C)C(=O)[C@H](Cc2ccc(-c3cnn(C)c3)cc2)NC(=O)CNC(=O)[C@H](Cc2ccc3ccccc3c2)N(C)C(=O)[C@H](Cc2ccc(C(=O)O)cc2)NC(=O)[C@H]([C@@H](C)CC)NC1=O
B2: Macrocyclic peptide of Example 2-10 (SEQ ID No. 13) (peptide)
peptide: {CH2CO}-[NMeQ][NMeQ][Hgn][NMeQ][Phe(4-COOH)]II[Phe(4-COOH)][NMe2Nal]G[Phe(4-(1-Me-pyrazol-4-yl))][NMeC]-NH2
modifications: thioether N-12
SMILES: CC[C@H](C)[C@@H]1NC(=O)[C@H](Cc2ccc(C(=O)O)cc2)NC(=O)[C@H](CCC(N)=O)N(C)C(=O)[C@H](CCCC(N)=O)NC(=O)[C@H](CCC(N)=O)N(C)C(=O)[C@H](CCC(N)=O)N(C)C(=O)CSC[C@@H](C(N)=O)N(C)C(=O)[C@H](Cc2ccc(-c3cnn(C)c3)cc2)NC(=O)CNC(=O)[C@H](Cc2ccc3ccccc3c2)N(C)C(=O)[C@H](Cc2ccc(C(=O)O)cc2)NC(=O)[C@H]([C@@H](C)CC)NC1=O
B3: Macrocyclic peptide of Example 2-9 (SEQ ID No. 12) (peptide)
peptide: {CH2CO}-[NMeQ][HseMe]D[NMeQ][Phe(4-COOH)]II[Phe(4-COOH)][NMe2Nal]G[Phe(4-(1-Me-pyrazol-4-yl))][NMeC]-NH2
modifications: thioether N-12
SMILES: CC[C@H](C)[C@@H]1NC(=O)[C@H](Cc2ccc(C(=O)O)cc2)NC(=O)[C@H](CCC(N)=O)N(C)C(=O)[C@H](CC(=O)O)NC(=O)[C@H](CCOC)NC(=O)[C@H](CCC(N)=O)N(C)C(=O)CSC[C@@H](C(N)=O)N(C)C(=O)[C@H](Cc2ccc(-c3cnn(C)c3)cc2)NC(=O)CNC(=O)[C@H](Cc2ccc3ccccc3c2)N(C)C(=O)[C@H](Cc2ccc(C(=O)O)cc2)NC(=O)[C@H]([C@@H](C)CC)NC1=O
B4: Macrocyclic peptide of Example 2-6 (SEQ ID No. 9) (peptide)
peptide: {CH2CO}-[NMeA][NMeQ]D[NMeQ][Phe(4-COOH)]II[Phe(4-COOH)][NMe2Nal]G[Phe(4-(1-Me-pyrazol-4-yl))][NMeC]-NH2
modifications: thioether N-12
SMILES: CC[C@H](C)[C@@H]1NC(=O)[C@H](Cc2ccc(C(=O)O)cc2)NC(=O)[C@H](CCC(N)=O)N(C)C(=O)[C@H](CC(=O)O)NC(=O)[C@H](CCC(N)=O)N(C)C(=O)[C@H](C)N(C)C(=O)CSC[C@@H](C(N)=O)N(C)C(=O)[C@H](Cc2ccc(-c3cnn(C)c3)cc2)NC(=O)CNC(=O)[C@H](Cc2ccc3ccccc3c2)N(C)C(=O)[C@H](Cc2ccc(C(=O)O)cc2)NC(=O)[C@H]([C@@H](C)CC)NC1=O
B5: Macrocyclic peptide of Example 2-7 (SEQ ID No. 10) (peptide)
peptide: {CH2CO}-[NMeQ][NMeL]D[NMeQ][Phe(4-COOH)]II[Phe(4-COOH)][NMe2Nal]G[Phe(4-(1-Me-pyrazol-4-yl))][NMeC]-NH2
modifications: thioether N-12
SMILES: CC[C@H](C)[C@@H]1NC(=O)[C@H](Cc2ccc(C(=O)O)cc2)NC(=O)[C@H](CCC(N)=O)N(C)C(=O)[C@H](CC(=O)O)NC(=O)[C@H](CC(C)C)N(C)C(=O)[C@H](CCC(N)=O)N(C)C(=O)CSC[C@@H](C(N)=O)N(C)C(=O)[C@H](Cc2ccc(-c3cnn(C)c3)cc2)NC(=O)CNC(=O)[C@H](Cc2ccc3ccccc3c2)N(C)C(=O)[C@H](Cc2ccc(C(=O)O)cc2)NC(=O)[C@H]([C@@H](C)CC)NC1=O
B6: Macrocyclic peptide of Example 2-11 (SEQ ID No. 14) (peptide)
peptide: {CH2CO}-[NMeQ][NMeQ]K(Ac)[NMeQ][Phe(4-COOH)]II[Phe(4-COOH)][NMe2Nal]G[Phe(4-(1-Me-pyrazol-4-yl))][NMeC]-NH2
modifications: thioether N-12
SMILES: CC[C@H](C)[C@@H]1NC(=O)[C@H](Cc2ccc(C(=O)O)cc2)NC(=O)[C@H](CCC(N)=O)N(C)C(=O)[C@H](CCCCNC(C)=O)NC(=O)[C@H](CCC(N)=O)N(C)C(=O)[C@H](CCC(N)=O)N(C)C(=O)CSC[C@@H](C(N)=O)N(C)C(=O)[C@H](Cc2ccc(-c3cnn(C)c3)cc2)NC(=O)CNC(=O)[C@H](Cc2ccc3ccccc3c2)N(C)C(=O)[C@H](Cc2ccc(C(=O)O)cc2)NC(=O)[C@H]([C@@H](C)CC)NC1=O
B7: Macrocyclic peptide of Example 2-8 (SEQ ID No. 11) (peptide)
peptide: {CH2CO}-[NMeQ][MeHseMe″]D[NMeQ][Phe(4-COOH)]II[Phe(4-COOH)][NMe2Nal]G[Phe(4-(1-Me-pyrazol-4-yl))][NMeC]-NH2
modifications: thioether N-12
SMILES: CC[C@H](C)[C@@H]1NC(=O)[C@H](Cc2ccc(C(=O)O)cc2)NC(=O)[C@H](CCC(N)=O)N(C)C(=O)[C@H](CC(=O)O)NC(=O)[C@H](CCOC)N(C)C(=O)[C@H](CCC(N)=O)N(C)C(=O)CSC[C@@H](C(N)=O)N(C)C(=O)[C@H](Cc2ccc(-c3cnn(C)c3)cc2)NC(=O)CNC(=O)[C@H](Cc2ccc3ccccc3c2)N(C)C(=O)[C@H](Cc2ccc(C(=O)O)cc2)NC(=O)[C@H]([C@@H](C)CC)NC1=O
B8: Lu-C-1 (peptide)
peptide: Ac-[NMeK](DOTA‑Lu)[NMeI]D[NMeQ][Phe(4-COOH)]IIY[NMeAla(isoquinolin-7-yl)]G[3Pal(6-Ph)][NMeC]-NH2
modifications: bridge N-12; not fully specified (bridges); printed as MeK(DOTA-Lu)-MeI-D-MeQ-F4COO-I-I-Y-MeNal27N-G-3Py6Ph-MeC-NH2
B9: Macrocyclic peptide of Example 2-1 (SEQ ID No. 2) (peptide)
peptide: {CH2CO}-[NMeK](Ac)[NMeI]D[NMeQ][Phe(4-COOH)]II[Phe(4-COOH)][NMe2Nal]G[3Pal(6-Ph)][NMeC]-NH2
modifications: thioether N-12
SMILES: CC[C@H](C)[C@@H]1NC(=O)[C@H](Cc2ccc(C(=O)O)cc2)NC(=O)[C@H](CCC(N)=O)N(C)C(=O)[C@H](CC(=O)O)NC(=O)[C@H]([C@@H](C)CC)N(C)C(=O)[C@H](CCCCNC(C)=O)N(C)C(=O)CSC[C@@H](C(N)=O)N(C)C(=O)[C@H](Cc2ccc(-c3ccccc3)nc2)NC(=O)CNC(=O)[C@H](Cc2ccc3ccccc3c2)N(C)C(=O)[C@H](Cc2ccc(C(=O)O)cc2)NC(=O)[C@H]([C@@H](C)CC)NC1=O
B10: Macrocyclic peptide of Example 2-2 (SEQ ID No. 3) (peptide)
peptide: {CH2CO}-[NMeK](Ac)[NMeI]D[NMeQ][Phe(4-COOH)]II[Phe(4-COOH)][NMe2Nal]G[Phe(4-(1-Me-pyrazol-4-yl))][NMeC]-NH2
modifications: thioether N-12
SMILES: CC[C@H](C)[C@@H]1NC(=O)[C@H](Cc2ccc(C(=O)O)cc2)NC(=O)[C@H](CCC(N)=O)N(C)C(=O)[C@H](CC(=O)O)NC(=O)[C@H]([C@@H](C)CC)N(C)C(=O)[C@H](CCCCNC(C)=O)N(C)C(=O)CSC[C@@H](C(N)=O)N(C)C(=O)[C@H](Cc2ccc(-c3cnn(C)c3)cc2)NC(=O)CNC(=O)[C@H](Cc2ccc3ccccc3c2)N(C)C(=O)[C@H](Cc2ccc(C(=O)O)cc2)NC(=O)[C@H]([C@@H](C)CC)NC1=O

Each binder was assayed against T1, human Glypican3 (R&D systems, catalog number: 2119-GP) (human, UniProt P51654 25-559, limits assumed) (assay: SPR (Biacore T200), Method B-1: human Glypican3 amine-coupled to CM3 chip, peptide as analyte).
T1 construct: Bought recombinant protein, amine-coupled to the chip in Method B-1; also called GPC3; hGPC3
Experimental: A CM3 sensor chip (Cytiva) was inserted into a Biacore T200 (Cytiva), primed three times with a running buffer: HBS-P+, pH 7.4 (Cytiva), and equilibrated at a flow rate of 30 μL/min. Ligand immobilization was performed at a flow rate of 10 μL/min. 50 μL each of 60 mM EDC solution (Cytiva) and 650 mM NHS solution (Cytiva) were mixed, and then reacted at a flow rate of 10 μL/min for 420 seconds, 150 μL of 0.2 μM human Glypican3 (R&D systems, catalog number: 2119-GP) solution which was prepared by diluting with 10 mM acetic acid solution (pH 5.0), was reacted at a flow rate of 10 μL/min for 420 seconds, and Glypican3 was immobilized on the CM3 sensor chip. After immobilization, 1.0 M ethanolamine aqueous solution (Cytiva) was allowed to react for 420 seconds at a flow rate of 10 μL/min for capping. A peptide lysate prepared to 10 mM in DMSO solution was diluted with running buffer to a final concentration of 10 μM peptide lysate. […] Using the above samples, peptide kinetics for Glypican3 was obtained by SPR measurement. Kinetics evaluation of Glypican3 was performed by SPR measurements at a flow rate of 10 μL/min, setting the association time to 120 seconds and the disassociation time to 600 seconds.
The obtained data by Method B-1, Method B-2, Method B-3 and Method B-4 were analyzed by follow. Single Cycle Kinetics was used as the kinetics evaluation model, and curve fitting was performed using Biacore T200 Evaluation Software Version 3.0 (Cytiva).

| Binder | Kd [nM] |
| --- | --- |
| B1 | 2.6 |
| B2 | 2.2 |
| B3 | 7.2 |
| B4 | 2.7 |
| B5 | 6.8 |
| B6 | 2.5 |
| B7 | 1.3 |
| B8 | 0.29 |
| B9 | 0.5 |
| B10 | 1.5 |
